In experiment [1] the target is Monodelphis domestica von Willebrand Factor (VWF) (Monodelphis domestica).
Experiment [2] has as its target human von Willebrand Factor (VWF) (human) (UniProt P04275).

Consider “botrocetin from Bothrops jararaca (complex)”, for which, in experiment [1], the reduction in the overall extent of platelet adhesion to collagen under flow (60 dyn/cm^2, 10 min) in opossum PRP with 4 ug/mL botrocetin, compared to the negative control stood at 39%. Besides, the reduction in the overall extent of platelet adhesion to collagen under flow (60 dyn/cm^2, 10 min) in human PRP with 4 ug/mL botrocetin, compared to the negative control in experiment [2] amounted to 66%.

Source of the values: article doi:10.1101/2025.01.21.634112.
